This note sets out measurements from publication doi:10.1101/2021.07.17.452491 (bioRxiv, 2021).

The target of experiment [1] is T1, U-STAT1 (purified full-length unphosphorylated STAT1) (UniProt P42224 1-750).
T1 construct: also called Full-length STAT1
T1 sequence (looked up): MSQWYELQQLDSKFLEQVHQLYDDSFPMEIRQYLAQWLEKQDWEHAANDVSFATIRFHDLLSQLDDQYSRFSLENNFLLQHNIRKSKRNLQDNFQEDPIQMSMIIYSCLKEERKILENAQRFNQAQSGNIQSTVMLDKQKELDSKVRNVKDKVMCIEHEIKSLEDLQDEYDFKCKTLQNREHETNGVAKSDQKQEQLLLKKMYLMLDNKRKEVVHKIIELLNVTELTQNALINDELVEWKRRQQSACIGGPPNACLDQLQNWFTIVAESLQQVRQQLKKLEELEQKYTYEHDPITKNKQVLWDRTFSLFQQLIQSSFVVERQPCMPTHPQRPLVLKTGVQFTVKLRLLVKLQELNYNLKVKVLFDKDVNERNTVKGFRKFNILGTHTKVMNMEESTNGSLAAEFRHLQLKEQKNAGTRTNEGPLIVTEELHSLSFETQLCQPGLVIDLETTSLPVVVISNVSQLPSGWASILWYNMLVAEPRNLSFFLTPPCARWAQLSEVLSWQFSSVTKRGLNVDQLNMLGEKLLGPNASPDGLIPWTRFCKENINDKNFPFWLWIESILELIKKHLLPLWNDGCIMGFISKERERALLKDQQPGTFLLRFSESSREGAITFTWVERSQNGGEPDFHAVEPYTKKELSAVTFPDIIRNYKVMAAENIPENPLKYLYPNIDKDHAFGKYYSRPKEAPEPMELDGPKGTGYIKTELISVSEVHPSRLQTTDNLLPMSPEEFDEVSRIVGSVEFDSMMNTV
The experiment can be described thus: ITC. The following applies: both partners purified.

The target of experiment [2] is T1, U-STAT1 (purified full-length …). In words: fluorescence polarisation. The settings on record: both partners purified. (In general: In fluorescence polarisation assays a small probe gives low polarisation when free and higher when bound to something large.)

In experiment [1], YDKPH (also called pYDKPH; pIFNGR 5-mer) [pIFNGR1 5-mer peptide] displayed a Kd of 7600 nM.

MWSVFIHGHDGSNKGSKTYTS (domain or fragment) [GB1-018^T2] had an IC50 in experiment [2] of 930 nM. In experiment [1], this molecule registered a Kd of 235 nM.

B1: GB1-018 (natural protein)
chain: MSSKGGSSGGMWSVFIHGHDGSNKGSKTYTSGGGGMWGGGSSSGVKSGVNGGVKSGTGKI
In experiment [2], B1 displayed an IC50 of 1260 nM. For the same molecule, in experiment [1], the Kd came out at 291 nM and the “stoichiometry N” value amounted to 1.02.

For the molecule MWSVFIHGHDGSNKGSK (domain or fragment) [GB1-018^T3], it took 17800 nM to reach half-maximal inhibition in experiment [2] (IC50). Further, the Kd in experiment [1] is over 10000 nM.

Broadly, the Kd is the equilibrium constant for the complex coming apart. High values mean a looser complex, low ones a tighter complex. In general, IC50 refers to the midpoint of a concentration-inhibition curve. A high value points to a need for much substance. In general, stoichiometry N refers to a count of units in the complex or per binding partner.
